According to patent US12576141B2 (AlbuNext, LLC, priority 2023, dated 2026):

Legend:
GLP-1 receptor = GLP-1 receptor (Homo sapiens, UniProt P43220); conditions: cited from earlier work
[1] = suitable for once weekly dosing; cited from earlier work
[2] = monotherapy, cited from earlier work
Cys34 of rat albumin = target: T1, Cys34 of rat albumin (Rattus norvegicus, UniProt P02770); experiment: electrophoresis of plasma samples from injected rats (translocation to rat albumin); format: in vivo
T1 construct: plasma samples collected from the rats that were injected s.c. and i.v; from tissue; host or cells: rat plasma (in vivo, circulating albumin)
Method: To further investigate the apparent inconsistencies supplementary electrophoresis experiments were conducted on the plasma samples collected from the rats that were injected s.c. and i.v. as noted above, and exemplary results are depicted in FIG. 30. As can be readily seen in the gel image, when conformationally unmodified AB-013 is tested in an electrophoresis experiment only one band is observed in the area where an albumin-exendin-4 MPA covalent construct would be observed. Completely unexpectedly, all time points taken during the experiment, including the earliest ones, had two bands in the area related to an albumin-exendin-4 MPA covalent construct.
This initial observation was further supported when a dynorphin-A-MPA peptide was injected intravenously to rats. Importantly, this dynorphin-A-MPA peptide was not conjugated to human albumin or any other type of albumin. […] In a similar fashion, the dynorphin-A-MPA peptide was also conjugated to human conformationally unmodified albumin in vitro to form a covalent bond between it and the Cys34 of human albumin. The dynorphin a human albumin covalent construct was injected intravenously to rats.

T1 sequence (P02770 25-608): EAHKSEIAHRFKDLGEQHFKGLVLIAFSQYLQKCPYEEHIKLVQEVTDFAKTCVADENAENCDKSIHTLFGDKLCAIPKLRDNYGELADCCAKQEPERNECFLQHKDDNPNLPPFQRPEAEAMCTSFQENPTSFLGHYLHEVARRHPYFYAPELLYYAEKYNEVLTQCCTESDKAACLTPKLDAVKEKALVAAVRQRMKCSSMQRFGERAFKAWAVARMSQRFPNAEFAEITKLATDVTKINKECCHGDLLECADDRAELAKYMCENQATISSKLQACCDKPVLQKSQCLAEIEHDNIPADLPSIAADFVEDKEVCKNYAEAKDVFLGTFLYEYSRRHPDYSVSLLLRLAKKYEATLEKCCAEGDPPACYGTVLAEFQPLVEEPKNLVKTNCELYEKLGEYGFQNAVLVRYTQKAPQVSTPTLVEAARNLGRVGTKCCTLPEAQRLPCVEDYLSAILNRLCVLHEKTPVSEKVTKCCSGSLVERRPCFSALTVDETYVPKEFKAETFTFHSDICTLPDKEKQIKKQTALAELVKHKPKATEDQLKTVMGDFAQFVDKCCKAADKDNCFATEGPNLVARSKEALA
Sequence of GLP-1 receptor (P43220 24-463, species assumed): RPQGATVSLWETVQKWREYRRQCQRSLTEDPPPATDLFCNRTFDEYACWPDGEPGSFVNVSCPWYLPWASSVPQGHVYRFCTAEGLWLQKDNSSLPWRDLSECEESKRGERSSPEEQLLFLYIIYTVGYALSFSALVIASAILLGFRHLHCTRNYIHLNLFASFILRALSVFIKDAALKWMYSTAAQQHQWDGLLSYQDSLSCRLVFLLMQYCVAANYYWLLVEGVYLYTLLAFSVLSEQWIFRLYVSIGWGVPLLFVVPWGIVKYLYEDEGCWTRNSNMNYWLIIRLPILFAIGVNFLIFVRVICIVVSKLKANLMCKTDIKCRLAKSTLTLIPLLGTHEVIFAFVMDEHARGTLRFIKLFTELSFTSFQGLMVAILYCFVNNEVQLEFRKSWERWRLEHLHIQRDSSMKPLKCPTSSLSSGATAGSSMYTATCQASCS

Row | Substance | GLP-1 receptor affinity (GLP-1 receptor) [nM] | half-life [1] [h] | decrease in HbA1c from baseline ([2]; 30 mg weekly dose, week 52) [%] | change from baseline of HbA1c ([2]; 50 mg weekly dose) [%] | bands on electrophoresis gel in the area of the albumin covalent construct (Cys34 of rat albumin; rat plasma, all time points) | bioconjugation in vivo with rat albumin (Cys34 of rat albumin; rats, intravenous, peptide not conjugated to albumin)
1 | albiglutide: albumin fusion protein in which a tandem repeat of Gly8 GLP-1 is fused to N-terminus of human serum albumin | 20 | 140 to 190 | −0.7 | −0.9 | – | –
2 | dynorphin-A-MPA peptide: dynorphin-A-MPA peptide not conjugated to any albumin, injected for in vivo bioconjugation | – | – | – | – | only one band | did indeed occur
